# According to publication PMC7567103 (Nature Communications, 2020):
# Where a chain is given by its changes, count along the chain named. Where no end group is shown, it is not given here.
# Experiments:
# [1] = target: GHRHR(23-423) (human) (UniProt Q02643)
# [2] = system: GHRHR WT; assay: cAMP accumulation, GHRH vs GHRH(D3A) (Supplementary Fig. 6c); format: cell-based, human; settings: D3A in GHRH; WT receptor
# Description: GHRH-stimulated cAMP accumulation was measured by a LANCE Ultra cAMP kit (PerkinElmer). Briefly, 24 h after transfection with GHRHR(23-423), GHRHR(23-405), GHRHR(23-405)-LgBiT-2MBP, or HA-Flag-GHRHR (WT and mutants), HEK 293 T cells (3000/well in 384-well white plates, PerkinElmer) were digested by 0.2% (w/v) EDTA and 5 μL stimulation buffer (HBSS supplemented with 5 mM HEPES, 0.5 mM IBMX, and 0.1% (w/v) BSA, pH 7.4). Different concentrations (5 μL) of GHRH were then added and the stimulation lasted for 30 min at RT. The reaction was stopped by adding 5 μL Eu-cAMP tracer and 5 μL ULight-anti-cAMP. After 1 h RT incubation, TR-FRET signals (excitation: 320 nm, emission: 615 and 665 nm) were measured by an EnVision (PerkinElmer).
# [3] = target: GHRHR(23-423) (WT) (human) (UniProt Q02643)
# [4] = target: HA-Flag-GHRHR C195A (human) (UniProt Q02643)
# [5] = target: HA-Flag-GHRHR F187A (human) (UniProt Q02643)
# [6] = target: HA-Flag-GHRHR H210A (human) (UniProt Q02643)
# [7] = target: HA-Flag-GHRHR K182A (human) (UniProt Q02643)
# [8] = target: HA-Flag-GHRHR N346A (human) (UniProt Q02643)
# [9] = target: HA-Flag-GHRHR R357A (human) (UniProt Q02643)
# [10] = target: HA-Flag-GHRHR T213A (human) (UniProt Q02643)
# [11] = target: HA-Flag-GHRHR W282A (human) (UniProt Q02643)
# [12] = target: T1, HA-Flag-GHRHR K182A (human, UniProt Q02643 23-423, K182^2.67bA); assay: cell-based or functional assay
# T1 sequence (looked up): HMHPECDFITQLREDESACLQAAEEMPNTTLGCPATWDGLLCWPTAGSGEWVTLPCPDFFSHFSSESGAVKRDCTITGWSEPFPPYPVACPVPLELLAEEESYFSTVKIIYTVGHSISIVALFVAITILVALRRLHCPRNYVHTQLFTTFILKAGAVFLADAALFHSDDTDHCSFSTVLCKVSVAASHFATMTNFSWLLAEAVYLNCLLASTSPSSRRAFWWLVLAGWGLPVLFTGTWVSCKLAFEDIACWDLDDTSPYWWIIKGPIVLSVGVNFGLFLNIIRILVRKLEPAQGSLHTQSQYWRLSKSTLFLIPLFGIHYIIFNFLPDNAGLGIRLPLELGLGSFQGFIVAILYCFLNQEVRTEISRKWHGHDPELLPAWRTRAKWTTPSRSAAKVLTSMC
# [13] = target: T2, HA-Flag-GHRHR F187A (human, UniProt Q02643 23-423, F187^ECL1A); assay: cell-based or functional assay
# T2 sequence (looked up): T1 sequence (looked up) with A160K, F165A
# [14] = target: T3, HA-Flag-GHRHR C195A (human, UniProt Q02643 23-423, C195^ECL1A); assay: cell-based or functional assay
# T3 sequence (looked up): T1 sequence (looked up) with A160K, C173A
# [15] = target: T4, HA-Flag-GHRHR R357C (human, UniProt Q02643 23-423, R357C); assay: cell-based or functional assay
# T4 sequence (looked up): T1 sequence (looked up) with A160K, R335C
molecule,measurement,setting,value
GHRH D^3PA (peptide),cAMP accumulation in HEK 293 T cells: fold loss of potency,[1],4 fold
"GHRH(D3A): GHRH with Asp3 replaced by Ala (YAAAIFTNSYRKVLGQLSARKLLQDIMSRQQGESNQERGARARL; ends and bridges not checked; UniProt P01286 32-75, looked up, variant D3A)",diminished potency vs GHRH,[2],~ 4 fold
growth hormone-releasing hormone (GHRH) (from UniProt P01286 32-75) (peptide),"Supplementary Table 4, Wild-type: pEC50 of GHRH-induced cAMP accumulation, HEK 293T cells",[3],9.74 -log M
same,"Supplementary Table 4, C195A: pEC50 of GHRH-induced cAMP accumulation, HEK 293T cells",[4],7.67 -log M
same,"Supplementary Table 4, F187A: pEC50 of GHRH-induced cAMP accumulation, HEK 293T cells",[5],8.94 -log M
same,"Supplementary Table 4, H210A: pEC50 of GHRH-induced cAMP accumulation, HEK 293T cells",[6],9 -log M
same,"Supplementary Table 4, K182A: pEC50 of GHRH-induced cAMP accumulation, HEK 293T cells",[7],7.4 -log M
same,"Supplementary Table 4, N346A: pEC50 of GHRH-induced cAMP accumulation, HEK 293T cells",[8],8.85 -log M
same,"Supplementary Table 4, R357A: pEC50 of GHRH-induced cAMP accumulation, HEK 293T cells",[9],6.87 -log M
same,"Supplementary Table 4, T213A: pEC50 of GHRH-induced cAMP accumulation, HEK 293T cells",[10],9.35 -log M
same,"Supplementary Table 4, W282A: pEC50 of GHRH-induced cAMP accumulation, HEK 293T cells",[11],7.88 -log M
"YADAIFTNSYRKVLGQLSARKLLQDIMSRQQGESNQERGARARL (peptide, UniProt P01286 32-75, looked up) [Growth hormone-releasing hormone (GHRH)]",cAMP accumulation in HEK 293 T cells: fold loss of GHRH potency,[12],~200 fold
same,cAMP accumulation in HEK 293 T cells: fold loss of GHRH potency,[13],~5 fold
same,cAMP accumulation in HEK 293 T cells: fold loss of GHRH potency,[14],~100 fold
same,cAMP accumulation in HEK 293 T cells: fold loss of GHRH potency,[15],1000 fold
